Source: paper PMC11565477 (FASEB journal : official publication of the Federation of …, 2021)
Values joined by “and” are separate entries in the source; they are usually repeats but may differ in a detail not shown here. Equal values may be shown once.

B1: purified HA-C1QL3 (pEB Multi Neo HA-C1ql3-IRES-GFP) (natural protein, mouse, UniProt Q9ESN4 21-255, looked up)
chain: HYEMLGTCRMVCDPYGGTKAPSTAATPDRGLMQSLPTFIQGPKGEAGRPGKAGPRGPPGEPGPPGPVGPPGEKGEPGRQGLPGPPGAPGLNAAGAISAATYSTVPKIAFYAGLKRQHEGYEVLKFDDVVTNLGNHYDPTTGKFTCSIPGIYFFTYHVLMRGGDGTSMWADLCKNNQVRASAIAQDADQNYDYASNSVVLHLEPGDEVYIKLDGGKAHGGNNNKYSTFSGFIIYAD
B2: purified NPTX1-flag-strep (pEB Multi Neo Nptx1-flag-TEV-strep-IRES-GFP, plasmid #4) (natural protein, mouse, UniProt Q62443 23-432, looked up)
chain: QDFGPTRFICTSVPVDADMCAASVAAGGAEELRSNVLQLRETVLQQKETILSQKETIRELTTKLGRCESQSTLDSGPGEARSGGGRKQPGSGKNTMGDLSRTPAAETLSQLGQTLQSLKTRLENLEQYSRLNSSSQTNSLKDLLQSKIDDLERQVLSRVNTLEEGKGGPKNDTEERAKIESALTSLHQRISELEKGQKDNRPGDKFQLTFPLRTNYMYAKVKKSLPEMYAFTVCMWLKSSAAPGVGTPFSYAVPGQANELVLIEWGNNPMEILINDKVAKLPFVINDGKWHHICVTWTTRDGVWEAYQDGTQGGNGENLAPYHPIKPQGVLVLGQEQDTLGGGFDATQAFVGELAHFNIWDRKLTPGEVYNLATCSSKALSGNVIAWAESQIEIFGGATKWTFEACRQIN
B3: purified NPTX1-flag (pEB Multi Neo Nptx1-flag-IRES-GFP, plasmid #3) (natural protein, mouse, UniProt Q62443 23-432, looked up)
chain: B2 chain

Legend:
[1] = molecular target: B3; assay: immunostaining of cells or tissue
[2] = molecular target: the molecule itself; assay: native gel or EMSA
[3] = molecular target: the molecule itself; assay: SEC

binding result [1] | Binder | stoichiometry N [2] | stoichiometry N [3]
binds | B1 | 6 and 18 | –
– | B2 | – | ~15
– | B3 | 15 | –
